According to patent US20250250593A1, “METHOD FOR PREPARING ALPHA-BRANCHED BETA'-HYDROXY CARBONYL COMPOUNDS BY ENZYMATIC-CATALYZED REDUCTIVE ALDOL REACTION” (Max-Planck-Gesellschaft zur Förderung der Wissenschaften …, priority 2022, published 2025):

How the values were obtained:
[1] = molecular target: T1, Kitasatospora setae crotonyl-CoA carboxylase/reductase (KsCcr) variant His365Asn (H365N), SEQ ID NO: 19 (Kitasatospora setae, UniProt E4N096, H365N); test: Steady-state kinetics of the reductive aldol reaction (crotonyl-CoA + formaldehyde + NADPH); format: biochemical
T1 construct: gene provided by JGI
T1 sequence (E4N096 1-445 H365N): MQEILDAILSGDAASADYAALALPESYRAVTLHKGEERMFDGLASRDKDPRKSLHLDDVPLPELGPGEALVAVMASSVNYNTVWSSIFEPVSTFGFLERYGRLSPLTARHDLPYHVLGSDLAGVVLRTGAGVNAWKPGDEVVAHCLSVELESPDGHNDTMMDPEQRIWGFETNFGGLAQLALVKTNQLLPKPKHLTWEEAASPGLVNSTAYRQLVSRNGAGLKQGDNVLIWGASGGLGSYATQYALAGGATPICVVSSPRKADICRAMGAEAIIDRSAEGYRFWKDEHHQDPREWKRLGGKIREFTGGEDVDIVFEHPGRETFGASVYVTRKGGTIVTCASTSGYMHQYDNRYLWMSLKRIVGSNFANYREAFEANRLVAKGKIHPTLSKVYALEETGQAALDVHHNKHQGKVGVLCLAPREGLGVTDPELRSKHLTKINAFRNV
Experimental: His-tagged KsCcr and its variants were expressed in E. coli BL21 (DE3). Cells in terrific broth were grown at 37° C. to an OD600=0.8-1.0 upon which expression for 12-16 h at 23° C. was induced by the addition of 500 μM IPTG (Isopropyl-D-β-thiogalactopyranoside). Cells were harvested for 15 min at 7500× g at 4° C. then resuspended in 2 mL of buffer A (50 mM Tris, 500 mM NaCl, 1 M L-Proline, pH=7.5) per gram of pellet. The suspension was treated with […] of DNAse I, 5 mM MgCl2, 10 μg/ml of lysozyme and incubated on ice for 20 min upon which cells were lysed using a sonicator. The lysate was clarified at 45000× g at 4° C. for 40 min and then loaded onto a pre-equilibrated 1 mL HisTrap FF column and washed with 15% buffer B (50 mM Tris, 500 mM NaCl, 1 M L-Proline, 500 mM imidazole, pH=7.5) for 20-30 column volumes until the UV 280 nm reached the baseline level. […]
Formaldehyde stock solution concentration was determined by following the formation of phenylhydrazone at 368 nm (εPhenylhydrazone,368 nm=6.1 mM^−1 cm^−1). […]
For reactions in which the full conversion to the aldol product was achieved assays were performed on a Cary-60 UV/Vis spectrophotometer (Agilent) at 30° C. using quartz cuvettes (1 mm, 3 mm or 10 mm path length; Hellma). […] Kinetic parameters for one substrate were determined by varying its concentration while the others were kept constant at 10 times their KM value.

[2] = substrate: NC(=O)C1=CN([C@@H]2O[C@H](COP(=O)(O)OP(=O)(O)OC[C@H]3O[C@@H](n4cnc5c(N)ncnc54)[C@H](OP(=O)(O)O)[C@@H]3O)[C@@H](O)[C@H]2O)C=CC1; test: cells, lysate or membranes named; conditions: other: apparent KM, 100 mM K2HPO4 pH 8.0, 30 °C, other substrates at 10 times KM, mean ± standard error
[3] = substrate: C/C=C/C(=O)SCCNC(=O)CCNC(=O)[C@H](O)C(C)(C)COP(=O)(O)OP(=O)(O)OC[C@H]1O[C@@H](n2cnc3c(N)ncnc32)[C@H](O)[C@@H]1OP(=O)(O)O; test: cells, lysate or membranes named; format: biochemical, Kitasatospora setae; conditions: other substrates at 10 times KM, mean ± standard error
Experimental: (§1) His-tagged KsCcr and its variants were expressed in E. coli BL21 (DE3). Cells in terrific broth were grown at 37° C. to an OD600=0.8-1.0 upon which expression for 12-16 h at 23° C. was induced by the addition of 500 μM IPTG (Isopropyl-D-β-thiogalactopyranoside). Cells were harvested for 15 min at 7500× g at 4° C. then resuspended in 2 mL of buffer A (50 mM Tris, 500 mM NaCl, 1 M L-Proline, pH=7.5) per gram of pellet. The suspension was treated with 10 mg/mL of DNAse I, 5 mM MgCl2, 10 μg/ml of lysozyme and incubated on ice for 20 min upon which cells were lysed using a sonicator. The lysate was clarified at 45000× g at 4° C. for 40 min and then loaded onto a pre-equilibrated 1 mL HisTrap FF column and washed with 15% buffer B (50 mM Tris, 500 mM NaCl, 1 M L-Proline, 500 mM imidazole, pH=7.5) for 20-30 column volumes until the UV 280 nm reached the baseline level. The protein was eluted by applying 100% buffer B, collected then pooled and desalted into 12.5 mM Tris, 125 mM NaCl, 1 M L-Proline pH=7.5. […] The protein was flash frozen in N2 (I) and stored at −80° C. if not immediately used for assays.
(§2) Assays were performed on a Cary-60 UV/Vis spectrophotometer (Agilent) at 30° C. using quartz cuvettes (10 mm path length; Hellma) contained K2HPO4 pH=8.0 and 3 mM phenylhydrazine.
(§3) For reactions in which the full conversion to the aldol product was achieved assays were performed on a Cary-60 UV/Vis spectrophotometer (Agilent) at 30° C. using quartz cuvettes (1 mm, 3 mm or 10 mm path length; Hellma). Reactions were performed in 100 mM K2HPO4 pH=8.0. Kinetic parameters for one substrate were determined by varying its concentration while the others were kept constant at 10 times their KM value. […] For reactions where both butyryl-CoA and the aldol product where formed the steady state parameters were determined using a discontinuous assay. Reactions of 100 μL volume were performed in 100 mM K2HPO4 pH=8.0 at 30° C. and each concentration was assayed in triplicates. Samples of 20 μL reaction were quenched with 2 μL of 50% formic acid and centrifuged for 10 min at 17′000 g at 4° C. 10 μL of this solution were diluted in 40 μL of 500 mM Tris HCl pH=7 and incubated overnight at room temperature. Samples were analyzed using by HPLC over an Agilent Eclipse Plus C18, 3.5 μm 100 Å, 100×2.1 mm, 4.6×100 mm column using 5% to 30% acetonitrile gradient over 7.5 min with 25 mM ammonium formate pH=8.1 as the aqueous phase.

[4] = tested on: KsCcr; test: HPLC analysis of reaction products: 2-HMB-CoA formed over total products from crotonyl-CoA and formaldehyde; format: biochemical, Kitasatospora setae; conditions: for Ratio of 2-HMB-CoA formed over total products: triplicates, mean ± standard deviation, values given as %
Excerpt: KsCcr wild-type (WT) natively promotes the NADPH-dependent reductive carboxylation of crotonyl-CoA into ethylmalonyl-CoA. […] Under these conditions, neither ethylmalonyl-CoA (carboxylation product) nor butyryl-CoA (reduction side product) were detected with LC-MS (see Table 2 further below). […] The compound was isolated and its structure was further verified using 2-dimensional NMR and high-resolution MS experiments. […] The newly introduced carbon was also observed in the ^13C-NMR experiment, confirming formation of aldol product 2-HMB-CoA by KsCcr.
The reaction was diluted 10 times into 5% methanol/Buffer 8.1 and analyzed by HPLC over an Agilent Eclipse Plus C18, 3.5 μm 100 Å, 100×2.1 mm, […] column using 5% to 30% acetonitrile gradient over 7.5 min with 25 mM ammonium formate pH=8.1 as the aqueous phase.

[5] = tested on: KsCcr; test: Native reductive carboxylation of crotonyl-CoA with CO2; format: biochemical, Kitasatospora setae; conditions: CO2 as electrophile
[6] = substrate: C=O; test: cells, lysate or membranes named; format: biochemical, Kitasatospora setae; conditions: other: calculated with K = 1000 for the equilibrium between formaldehyde and its methylene diol form, pH 8.0, 30 °C
Experimental: as §1, §2, §3

[7] = substrate: NC(=O)C1=CN([C@@H]2O[C@H](COP(=O)(O)OP(=O)(O)OC[C@H]3O[C@@H](n4cnc5c(N)ncnc54)[C@H](OP(=O)(O)O)[C@@H]3O)[C@@H](O)[C@H]2O)C=CC1; test: cells, lysate or membranes named; format: biochemical, Kitasatospora setae; conditions: other: 100 mM K2HPO4 pH 8.0, 30 °C, other substrates at 10 times KM, mean ± standard error
Experimental: as §1, §2, §3

[8] = other: apparent KM, 100 mM K2HPO4 pH 8.0, 30 °C
[9] = other: 100 mM K2HPO4 pH 8.0, 30 °C

Molecule: C=O [formaldehyde]
- apparent catalytic rate relative to WT enzyme ([1]; decreased to % of the WT enzyme): 10%
- apparent KM for formaldehyde, increase compared to WT ([1]; fold increase compared to WT): two-fold

B1: Kitasatospora setae crotonyl-CoA carboxylase/reductase (KsCcr), wild type (WT), SEQ ID NO: 1 (Kitasatospora setae KM-6054) (protein)
chain: MQEILDAILSGDAASADYAALALPESYRAVTLHKGEERMFDGLASRDKDPRKSLHLDDVPLPELGPGEALVAVMASSVNYNTVWSSIFEPVSTFGFLERYGRLSPLTARHDLPYHVLGSDLAGVVLRTGAGVNAWKPGDEVVAHCLSVELESPDGHNDTMMDPEQRIWGFETNFGGLAQLALVKTNQLLPKPKHLTWEEAASPGLVNSTAYRQLVSRNGAGLKQGDNVLIWGASGGLGSYATQYALAGGATPICVVSSPRKADICRAMGAEAIIDRSAEGYRFWKDEHHQDPREWKRLGGKIREFTGGEDVDIVFEHPGRETFGASVYVTRKGGTIVTCASTSGYMHQYDNRYLWMSLKRIVGSHFANYREAFEANRLVAKGKIHPTLSKVYALEETGQAALDVHHNKHQGKVGVLCLAPREGLGVTDPELRSKHLTKINAFRNV
notes: gene provided by JGI
- Km [2]: 389 ± 49 µM
- Km [3, 8]: 33 ± 4 µM
- kcat [3, 8]: 30 ± 1 s⁻¹

B2: KsCcr variant Phe170Ala: KsCcr variant Phe170Ala, SEQ ID NO: 23 (protein)
chain: MQEILDAILSGDAASADYAALALPESYRAVTLHKGEERMFDGLASRDKDPRKSLHLDDVPLPELGPGEALVAVMASSVNYNTVWSSIFEPVSTFGFLERYGRLSPLTARHDLPYHVLGSDLAGVVLRTGAGVNAWKPGDEVVAHCLSVELESPDGHNDTMMDPEQRIWGAETNFGGLAQLALVKTNQLLPKPKHLTWEEAASPGLVNSTAYRQLVSRNGAGLKQGDNVLIWGASGGLGSYATQYALAGGATPICVVSSPRKADICRAMGAEAIIDRSAEGYRFWKDEHHQDPREWKRLGGKIREFTGGEDVDIVFEHPGRETFGASVYVTRKGGTIVTCASTSGYMHQYDNRYLWMSLKRIVGSHFANYREAFEANRLVAKGKIHPTLSKVYALEETGQAALDVHHNKHQGKVGVLCLAPREGLGVTDPELRSKHLTKINAFRNV
modifications: KsCcr variant Phe170Ala
- Ratio of 2-HMB-CoA formed over total products ([4]; 5 mM formaldehyde): 17 ± 0
- 2-HMB-CoA produced (reductive aldol product) ([4]; 75 mM formaldehyde): up to 64%
- Ratio of 2-HMB-CoA formed over total products ([4]; 75 mM formaldehyde): 64 ± 0
- reductive carboxylation [5]: 17%

B3: KsCcr variant Asn81Leu: KsCcr active site variant Asn81Leu, SEQ ID NO: 20 (protein)
chain: MQEILDAILSGDAASADYAALALPESYRAVTLHKGEERMFDGLASRDKDPRKSLHLDDVPLPELGPGEALVAVMASSVNYLTVWSSIFEPVSTFGFLERYGRLSPLTARHDLPYHVLGSDLAGVVLRTGAGVNAWKPGDEVVAHCLSVELESPDGHNDTMMDPEQRIWGFETNFGGLAQLALVKTNQLLPKPKHLTWEEAASPGLVNSTAYRQLVSRNGAGLKQGDNVLIWGASGGLGSYATQYALAGGATPICVVSSPRKADICRAMGAEAIIDRSAEGYRFWKDEHHQDPREWKRLGGKIREFTGGEDVDIVFEHPGRETFGASVYVTRKGGTIVTCASTSGYMHQYDNRYLWMSLKRIVGSHFANYREAFEANRLVAKGKIHPTLSKVYALEETGQAALDVHHNKHQGKVGVLCLAPREGLGVTDPELRSKHLTKINAFRNV
modifications: KsCcr variant Asn81Leu
- Ratio of 2-HMB-CoA formed over total products ([4]; 5 mM formaldehyde): 35 ± 0
- 2-HMB-CoA produced (reductive aldol product) ([4]; 75 mM formaldehyde): up to 64%
- Ratio of 2-HMB-CoA formed over total products ([4]; 75 mM formaldehyde): 64 ± 2
- carboxylation of crotonyl-CoA ([5]; C2-ene adduct accumulates): completely impaired

B4: Kitasatospora setae crotonyl-CoA carboxylase/reductase (KsCcr) variant His365Asn (H365N), SEQ ID NO: 19 (Kitasatospora setae KM-6054; H365N) (protein)
chain: MQEILDAILSGDAASADYAALALPESYRAVTLHKGEERMFDGLASRDKDPRKSLHLDDVPLPELGPGEALVAVMASSVNYNTVWSSIFEPVSTFGFLERYGRLSPLTARHDLPYHVLGSDLAGVVLRTGAGVNAWKPGDEVVAHCLSVELESPDGHNDTMMDPEQRIWGFETNFGGLAQLALVKTNQLLPKPKHLTWEEAASPGLVNSTAYRQLVSRNGAGLKQGDNVLIWGASGGLGSYATQYALAGGATPICVVSSPRKADICRAMGAEAIIDRSAEGYRFWKDEHHQDPREWKRLGGKIREFTGGEDVDIVFEHPGRETFGASVYVTRKGGTIVTCASTSGYMHQYDNRYLWMSLKRIVGSNFANYREAFEANRLVAKGKIHPTLSKVYALEETGQAALDVHHNKHQGKVGVLCLAPREGLGVTDPELRSKHLTKINAFRNV
notes: gene provided by JGI
- Km [3, 9]: 69 ± 17 µM
- kcat [3, 9]: 3.1 ± 0.2 s⁻¹
- Km [6]: 66 ± 23 µM
- kcat [6]: 3.1 ± 0.2 s⁻¹
- Km [7]: 16 ± 7 µM
